We go through 2 molecules from patent US20190022242A1 (AbbVie / Abbott, published 2019).

The target in test [1] is T1, hMMP16ECD(E247A)-His (human, UniProt P51512 32-564).
T1 construct: IgK signal peptide upstream (cleaved); also called hMMP16-his; hMMP16-His protein
As to the kind of experiment: colorimetric ELISA, plate coated with hMMP16-his at 3 ug/mL, antibody 0.5 ug/mL. For orientation: An ELISA detects its analyte on a solid surface through an enzyme-linked reagent.

For test [2], the target named is T2, hMMP16ECD(E247A)-Fc (human, UniProt P51512 32-564).
T2 construct: IgK signal peptide upstream (cleaved); also called phMMP16ECD(E247A)-Fc; not shown: human IgG2 Fc protein
Description: MSD ELISA, plate coated with hMMP16ECD(E247A)-Fc at 2 ug/mL, antibody 0.5 ug/mL.

T2 sequence (P51512 32-564 E247A): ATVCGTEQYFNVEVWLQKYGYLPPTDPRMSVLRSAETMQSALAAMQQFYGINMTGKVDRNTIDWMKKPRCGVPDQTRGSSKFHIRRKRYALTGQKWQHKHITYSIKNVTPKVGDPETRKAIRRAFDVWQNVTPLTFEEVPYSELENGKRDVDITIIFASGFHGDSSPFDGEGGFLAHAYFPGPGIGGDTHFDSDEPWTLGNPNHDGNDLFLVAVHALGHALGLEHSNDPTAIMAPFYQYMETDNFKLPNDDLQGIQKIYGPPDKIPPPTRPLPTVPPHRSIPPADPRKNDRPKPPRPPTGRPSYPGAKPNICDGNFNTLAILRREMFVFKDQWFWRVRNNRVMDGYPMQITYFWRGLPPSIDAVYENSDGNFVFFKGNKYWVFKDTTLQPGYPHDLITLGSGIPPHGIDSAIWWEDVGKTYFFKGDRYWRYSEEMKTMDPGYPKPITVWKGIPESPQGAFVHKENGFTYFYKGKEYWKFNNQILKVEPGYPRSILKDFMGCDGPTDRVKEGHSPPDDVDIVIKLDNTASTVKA
T1 sequence (P51512 other isoform, or with tags, fused parts or gaps E247A E247A): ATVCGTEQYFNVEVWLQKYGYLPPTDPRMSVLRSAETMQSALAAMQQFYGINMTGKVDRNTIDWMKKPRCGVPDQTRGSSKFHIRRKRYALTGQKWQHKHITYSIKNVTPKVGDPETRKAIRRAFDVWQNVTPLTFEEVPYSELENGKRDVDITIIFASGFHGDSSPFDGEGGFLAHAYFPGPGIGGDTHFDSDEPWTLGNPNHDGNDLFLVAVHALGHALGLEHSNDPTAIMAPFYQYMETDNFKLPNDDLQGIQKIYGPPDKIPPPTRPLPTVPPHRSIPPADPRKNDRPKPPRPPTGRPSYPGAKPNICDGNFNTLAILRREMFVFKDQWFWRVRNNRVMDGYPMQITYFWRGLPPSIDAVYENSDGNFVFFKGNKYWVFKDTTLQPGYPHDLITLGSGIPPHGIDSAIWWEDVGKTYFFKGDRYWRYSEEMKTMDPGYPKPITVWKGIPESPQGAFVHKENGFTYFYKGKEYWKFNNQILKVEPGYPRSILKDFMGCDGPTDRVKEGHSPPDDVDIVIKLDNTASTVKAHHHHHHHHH

B1: SC73.101 (antibody, V domains shown)
VH: QIHLVQSGPELKKPGETVKISCKASGYTFTDYSMHWVKQAPGKGLKWMGWINTETGEPTYPDDFKGRFAFSLETSASTAYLQINNLKNEDTATYFCARGYGYDETGTFAYWGQGTLVTVSA
VL: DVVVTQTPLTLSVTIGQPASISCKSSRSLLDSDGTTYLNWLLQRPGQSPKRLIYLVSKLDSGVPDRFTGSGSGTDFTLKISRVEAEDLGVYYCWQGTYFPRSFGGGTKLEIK
notes: Murine hybridoma antibody, second inoculation campaign; mouse IgG2a was used as its isotype control in IHC; also called anti-MMP16 antibody (clone SC73.101)
Turning to B1, the binding result in test [1] was “binds”.

B2: SC73.17 (antibody, V domains shown)
VH: EVQLQQSGAELVKPGASVKLSCTASGFNFKDTYMHWVKQRPEQGLEWIGRIDPAIGITEYGPKFQGKATITADTSSNTAYLQLSSLTSEDTAVYYCTRGDFYGNSLDVWGAGTTVTVSS
VL: DIVMTQSPATLSVTPGDRVSLSCRASQIISDYLHWYRQKSHESPRLLIKYASQSISGIPSRFSGSGSGSDFTLSINSVEPEDVGVYYCQNGHSFPLTFGTGTKLELK
notes: Murine hybridoma antibody, first inoculation campaign
For the molecule B2, in test [2], the binding result is recorded as “binds”.
